The text below walks through data of patent US20240181005A1, “COMPOSITIONS, SYSTEMS, AND METHODS FOR GENERATING GENE-EDITED CELLS” (CellScript, LLC, priority 2020, published 2024).

Data set [1] addresses T1, 53BP1 (Homo sapiens, UniProt Q12888).
T1 construct: endogenous in cells
The note with it: blocking 53BP1 tudor domain binding to H4K20me2; cited from earlier work.

Data set [2] concerns HSPCs. Put plainly: Innate immune, transcriptional and toxicity response of HSPCs to the mRNAs during gene editing.
The test system of data set [3] is NSGS immunodeficient mice. The experiment in a line: Transplantation of gene-edited XMEN CD34+ HSPCs into NSGS mice. The following applies: for post-transplant TI: ddPCR, human CD45+ cells from bone marrow, week 16. The class given is in vivo, mouse. An excerpt: (A) Human engraftment measured by the presence of human CD45^+ cells by flow cytometry at week 16 in the peripheral blood, bone marrow, spleen and thymus of NSGS mice transplanted with HD (n=5 mice), untreated (n=12) or gene-edited XMEN CD34^+ HSCs (n=1 (−i53), n=8 (+i53), n=18 (+i53^+ GSE-CS56)). The dotted line indicates the threshold for engraftment at 0.2% hCD45^+ cells in the bone marrow. (B) Percentage of human engraftment (hCD45^+) measured after injection of XMEN HSPCs gene edited with increasing Multiplicity of Infection (MOIs) of AAV, in presence of i53 alone or i53 and GSE-CS56. (C) Immunophenotypic analysis of bone marrow at 16 weeks post-transplant by flow cytometry showing the percentages of CD34^+ cells, myeloid (CD33^+), lymphoid B (CD19^+) and T (CD3^+) after gating on the hCD45^+ population. (D and E) Restoration of NKG2D expression in NK cells from the spleen (D) and CD8^+ T cells from the peripheral blood, spleen and thymus (E) at week 16 post-transplant. For all the graphs, data are shown as mean±SD. (F and G) Targeted insertion quantified by ddPCR in human CD45^+ cells isolated from the bone marrow after gene editing with i53 (orange bar) or with i53 and GSE-CS56 (green bar) (F); or in the lymphoid T (CD3), myeloid (CD33/CD14) and lymphoid B (CD19) cells sorted from the spleen (G).
The use of triple transgenic immunodeficient mice NOD.Cg-Prkd^scid Il2rg^tm1Wjl Tg (NSG-SGM3 or NSGS) expressing human IL3, GM-CSF and SCF cytokines (30) (Stock No: 013062; The Jackson Laboratory) for transplantation studies was approved by NIAID Institutional Animal Care and Use Committee under the animal use protocol LCIM-1E. The conduct of these studies conforms to AAALAC International guidelines and all US federal regulations required for protection of research animals. Newborn mice (0-4 days old) were irradiated at 100 cGy and immediately intrahepatically injected (courtesy of Mara Pavel-Dinu) with 1-1.5×10^6 viable CD34^+ cells per mouse. Peripheral blood from tail vein was analyzed at weeks 12 and 16 after transplantation. At 16 weeks, mice were sacrificed, and bone marrow, spleen and thymus were harvested for analysis of engraftment, sorting or gDNA extraction as indicated. […]
(§1) Targeted insertion (TI) of MAGT1 cDNA was quantified by digital droplet PCR (ddPCR) using one primer located upstream of the LHA (5′-[…]−3′, SEQ ID NO:42) the second primer (5′-[…]-3′, SEQ ID NO:43) inside the cDNA and a probe (5′-[…]-3′, SEQ ID NO:44).

The test system of data set [4] is HSPCs. The note with it: HSPCs from patients with CGD, SCD, SCID-X1; cited from earlier work.
Data set [5] concerns NK cells (CD3-CD56^+) differentiated from XMEN CD34^+ HSPCs. Put plainly: In vitro NK cell differentiation from gene-edited CD34+ cells: NKG2D expression and TI. Type of data set: cell-based, human.
From the text: (B) Dot plot showing the gating for NK cells (CD3-CD56+) and NKG2D expression after 35 days of in vitro NK cell differentiation from CD34+ cells; histogram on the right showing the percentage of CD34-derived NK cells in each condition (n=2-8 independent experiments). (C) NKG2D expression and (D) targeted integration in NK cells at day 35 of in vitro differentiation (n=2-8 independent experiments). (E) Cytotoxic activity of CD34+-differentiated NK cells against K562 cells at an E:T ratio of 2:1 (n=1-7 independent experiments). For all the graphs, data are shown as mean±SD; *p<0.05, *p<0.01, ***p<0.001, ****p<0.0001. (F) Correlation between the NKG2D expression (%) and the killing activity (%) in NK cells at day 35 was calculated using Spearman's correlation coefficient and two-tailed p-value (n=21 samples).
CD34^+ HSPCs were differentiated into NK cells in vitro using a protocol adapted from (47). 200,000 CD34^+ cells were resuspended in IMDM supplemented with 20% FBS and 50 μM BME containing 5 ng/mL rhIL-3 (first week only), 10 ng/mL IL-15, 20 ng/mL IL-7, 20 ng/mL SCF, 10 ng/mL Flt3L and 100 U/mL IL2 for 35 days. […]
as §1

In data set [6] the test system is XMEN CD34^+ HSPCs. Put plainly: Targeted insertion (TI) of MAGT1 cDNA by ddPCR in gene-edited CD34+ HSPCs. The class given is cell-based, human. The note with it: ddPCR 48-72 h post-EP, input pre-transplant.
From the text: (A) Location of the 10 candidate sgRNAs targeting MAGT1 gene transcription start site (TSS). Each sgRNA (sg) is represented as a 20-bp sequence (light grey or green) associated with the 3-bp PAM sequence (darker color). (B) Evaluation of the percentage of cutting activity by TIDE assay after gDNA extraction from untreated versus Cas9/sgRNA treated HD CD34+ cells at 2-5 days post electroporation, sequencing of Exon 1 and comparison of the sequences using TIDE software (n=1-5 independent experiments). (C) Design of the rAAV6-MAGT1 donor. (D) Molecular analysis showing the percentage of targeted insertion in gene-edited XMEN CD34+ cells using gene editing enhancers as described. gDNA was extracted at 48 h-72 h post-EP and insertion of the MAGT1 cDNA donor was quantified by ddPCR (n=3-11 independent experiments). (E) Viability determined by blue trypan exclusion in untreated Naive and AAV-MAGT1-treated XMEN HSPCs at day 2 post-EP (n=1-7 independent experiments). (F) Representative analysis of the phenotype of CD34+ cells at day 2 post-EP. […]
as §1

Data set [7] concerns XMEN CD34^+ HSPCs. Put plainly: Viability of gene-edited CD34+ HSPCs by trypan blue exclusion. The class given is cell-based, human. The note with it: day 2 post-EP. An excerpt: (A) Location of the 10 candidate sgRNAs targeting MAGT1 gene transcription start site (TSS). Each sgRNA (sg) is represented as a 20-bp sequence (light grey or green) associated with the 3-bp PAM sequence (darker color). (B) Evaluation of the percentage of cutting activity by TIDE assay after gDNA extraction from untreated versus Cas9/sgRNA treated HD CD34+ cells at 2-5 days post electroporation, sequencing of Exon 1 and comparison of the sequences using TIDE software (n=1-5 independent experiments). (C) Design of the rAAV6-MAGT1 donor. (D) Molecular analysis showing the percentage of targeted insertion in gene-edited XMEN CD34+ cells using gene editing enhancers as described. gDNA was extracted at 48 h-72 h post-EP and insertion of the MAGT1 cDNA donor was quantified by ddPCR (n=3-11 independent experiments). (E) Viability determined by blue trypan exclusion in untreated Naive and AAV-MAGT1-treated XMEN HSPCs at day 2 post-EP (n=1-7 independent experiments). (F) Representative analysis of the phenotype of CD34+ cells at day 2 post-EP. For all the graphs, data are shown as mean±standard deviation (SD); ANOVA one-way test and Tukey's post hoc multiple comparisons test, *p<0.05, *p<0.01, ***p<0.001, ****p<0.0001.
Cryopreserved CD34^+ HSPCs were thawed (day 0) and cultured in StemSpan SFEM II medium (STEMCELL™ Technologies) supplemented with 100 ng/mL stem cell factor (SCF), Flt3 ligand, thrombopoietin (Peprotech), 0.75 μM of StemRegenin-1 (STEMCELL™ Technologies) and 35 nM of UM171 (STEMCELL™ Technologies) for 2 days (37). […] At 48 h post-EP, the cells were harvested and counted by hemocytometer with trypan blue to determine viability before their use for molecular analysis, phenotypic analysis by flow cytometry, CFU assay, T or NK cell differentiation or cryopreservation for transplant studies.

Data set [8] relates to CD34^+ HSPCs. Put plainly: CFSE proliferation assay. The note with it: CFSE stain day 1 post EP, flow cytometry day 6. The class given is cell-based, human. An excerpt: (A) Optimization of cutting activity (% indels) of various forms of Cas9 mRNA and at increasing concentration. Commercial Cas9 mRNA (MaxCyte, Mx) is used as control. (B) Evaluation of the glycerol concentration in the EP mix on viability and cutting activity at day 2 post EP. (C) Representative dot plots showing the immunophenotype analysis of HSPCs by flow cytometry at day 2 post EP. (D) Hematopoietic potential evaluated by the CFU assay at day 2 post-EP; Number of CFU colonies were counted after 14 days. (E) Measure of the proliferation index after staining HD HSPCs at day 1 post EP with CFSE dye and analysis of the proliferation by flow cytometry at day 6 post EP.
The following day after EP, CD34^+ cells were stained with CellTrace™ CFSE kit per manufacturer's instructions (ThermoFisher Scientific) and analyzed by flow cytometry 5 days later. Determination of the proliferation index was done using FlowJo software.

T1 sequence (Q12888 whole entry): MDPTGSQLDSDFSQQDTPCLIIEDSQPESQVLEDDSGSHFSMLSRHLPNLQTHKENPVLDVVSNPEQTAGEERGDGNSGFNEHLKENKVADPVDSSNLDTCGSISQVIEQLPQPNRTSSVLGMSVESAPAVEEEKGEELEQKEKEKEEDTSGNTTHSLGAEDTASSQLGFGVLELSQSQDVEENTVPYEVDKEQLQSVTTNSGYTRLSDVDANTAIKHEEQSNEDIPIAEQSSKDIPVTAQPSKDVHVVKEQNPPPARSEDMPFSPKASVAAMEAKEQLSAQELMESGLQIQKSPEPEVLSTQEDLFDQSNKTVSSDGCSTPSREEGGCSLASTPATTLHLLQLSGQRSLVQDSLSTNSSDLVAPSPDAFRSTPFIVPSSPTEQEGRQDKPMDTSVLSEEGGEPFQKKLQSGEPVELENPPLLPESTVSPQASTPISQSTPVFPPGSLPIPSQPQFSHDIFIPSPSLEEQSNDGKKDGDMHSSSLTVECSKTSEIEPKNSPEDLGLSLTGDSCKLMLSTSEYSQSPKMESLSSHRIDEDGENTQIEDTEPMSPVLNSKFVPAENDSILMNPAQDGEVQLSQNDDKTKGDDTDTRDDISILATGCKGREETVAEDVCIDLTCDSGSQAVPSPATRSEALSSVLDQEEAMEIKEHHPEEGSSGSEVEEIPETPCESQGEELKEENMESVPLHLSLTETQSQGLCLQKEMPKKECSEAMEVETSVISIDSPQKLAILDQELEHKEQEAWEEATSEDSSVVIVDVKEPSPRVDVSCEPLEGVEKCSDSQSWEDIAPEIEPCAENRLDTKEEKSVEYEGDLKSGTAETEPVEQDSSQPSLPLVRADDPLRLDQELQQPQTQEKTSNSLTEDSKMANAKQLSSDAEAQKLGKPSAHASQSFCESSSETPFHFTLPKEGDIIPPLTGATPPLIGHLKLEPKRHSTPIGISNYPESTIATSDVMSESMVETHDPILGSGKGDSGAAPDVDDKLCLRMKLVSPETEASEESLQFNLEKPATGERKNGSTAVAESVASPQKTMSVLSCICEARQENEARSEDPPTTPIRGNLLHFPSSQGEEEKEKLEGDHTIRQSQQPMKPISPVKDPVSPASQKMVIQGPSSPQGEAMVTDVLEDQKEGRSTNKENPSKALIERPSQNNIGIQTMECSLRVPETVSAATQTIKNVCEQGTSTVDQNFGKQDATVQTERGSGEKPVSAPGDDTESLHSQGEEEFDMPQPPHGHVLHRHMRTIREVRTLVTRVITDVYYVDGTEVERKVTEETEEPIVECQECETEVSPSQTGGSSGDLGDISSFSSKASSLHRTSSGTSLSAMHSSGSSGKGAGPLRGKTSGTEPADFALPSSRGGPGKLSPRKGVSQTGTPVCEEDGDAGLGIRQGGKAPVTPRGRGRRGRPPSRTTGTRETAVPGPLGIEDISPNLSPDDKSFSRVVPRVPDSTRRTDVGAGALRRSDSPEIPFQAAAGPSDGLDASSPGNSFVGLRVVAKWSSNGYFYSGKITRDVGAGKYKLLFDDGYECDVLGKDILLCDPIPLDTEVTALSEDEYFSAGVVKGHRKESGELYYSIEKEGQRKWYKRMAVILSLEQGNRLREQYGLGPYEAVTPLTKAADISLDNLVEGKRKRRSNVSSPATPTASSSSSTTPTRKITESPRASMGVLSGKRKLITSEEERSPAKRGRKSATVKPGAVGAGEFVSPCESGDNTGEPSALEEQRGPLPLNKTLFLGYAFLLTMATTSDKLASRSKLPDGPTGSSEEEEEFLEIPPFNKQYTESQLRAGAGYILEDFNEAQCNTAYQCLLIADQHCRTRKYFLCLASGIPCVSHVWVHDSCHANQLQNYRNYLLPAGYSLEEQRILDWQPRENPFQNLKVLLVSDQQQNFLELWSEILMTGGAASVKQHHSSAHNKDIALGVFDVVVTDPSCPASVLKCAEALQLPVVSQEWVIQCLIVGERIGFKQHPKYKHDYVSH

As to “i53 protein: ubiquitin variant (SEQ ID NO:2) of Canny et al. that binds the tandem tudor domain of 53BP1”, the “increase of repair by HDR” value in data set [1] is “about 2 fold”.

Take “i53 mRNA: pseudouridine-modified mRNA encoding i53, an inhibitor of 53BP1 (ubiquitin variant, SEQ ID NO:6)”: the “upregulation of interferon or other cytokines or cellular stress genes, transcriptional repression, toxicity or loss of viability” value in data set [2] is “not observed any significant upregulation”. The “post-transplant TI” value in data set [3] came to 54.5±18.3%. Besides, in data set [3] (week 16, NSGS mice, bone marrow), the “engraftment of human CD45+ cells in the BM” value worked out at 11.03%. The “levels of HDR-mediated TI with AAV donors or gene correction with ssODN donors” value in data set [4] is reported as “above 60%”. In addition, the “NKG2D expression in in vitro differentiated NK cells” value in data set [5] (day 35 of culture) turned out to be 26%. The “molecular TI rates in NK cells” value in data set [5] (day 35 of in vitro differentiation, ddPCR) is given as 34%. Further, the “AAV-MAGT1 TI rates (targeted insertion)” value in data set [6] was 50.0±18.2%. For the same molecule, in data set [7], the “viability of GE CD34+ HSPCs” value is on record as “decreased after gene editing, independently of i53”.

B1: GSE CS-56 mRNA: mRNA encoding a human TP53 genetic suppressor element, a dominant negative deletion mutant of TP53 (nucleic acid)
chain: GGGUAAUACAAGCUUGCUUGUUCUUUUUGCAGAAGCUCAGAAUAAACGCUCAACUUUGGCAGCCACCAUGGAUUGUCCUGGGAGAGACCGGCGCACAGAGGAAGAGAAUCUCCGCAAGAAAGGGGAGCCUCACCACGAGCUGCCCCCAGGGAGCACUAAGCGAGCACUGCCCAACAACACCAGCUCCUCUCCCCAGCCAAAGAAGAAACCACUGGAUGGAGAAUAUUUCACCCUUCAGAUCCGUGGGCGUGAGCGCUUCGAGAUGUUCCGAGAGCUGAAUGAGGCCUUGGAACUCAAGGAUGCCCAGGCUGGGAAGGAGCCAGGGGGGAGCAGGGCUCACUCCAGCCACCUGAAGUAGUGAUAUCACUAGUGACUGACUAGGAUCUGGUUACCACUAAACCAGCCUCAAGAACACCCGAAUGGAGUCUCUAAGCUACAUAAUACCAACUUACACUUUACAAAAUGUUGUCCCCCAAAAUGUAGCCAUUCGUAUCUGCUCCUAAUAAAAAGAAAGUUUCUUCACAUUCUGCUAGCUCUAG
modifications: pseudouridine; (1)..(539) U=Pseudouridine
In the case of B1, the proliferative capacity result in data set [8] is recorded as “better preserved”. Moreover, the “upregulation of interferon or other cytokines or cellular stress genes, transcriptional repression, toxicity or loss of viability” value in data set [2] is reported as “not observed any significant upregulation”. Besides, in data set [3], the “post-transplant TI” value is “slightly improved”. Moreover, in data set [3] (week 16 post-transplant, PB, spleen, thymus), the “percentages of NKG2D-expressing CD8+ T cells” value was “slightly improved”. For the same molecule, the “AAV-MAGT1 TI rates (targeted insertion)” value in data set [6] is listed as 62.3±18%. Also, the results for the “viability of GE CD34+ HSPCs” value in data set [7] and in data set [7] (listed as GSE-CS56 mRNA) were “significantly increased” and “rescue the cell viability”, respectively.
